Results on one substance are retold here after patent publication US20230233707A1.

For this test, the target named is CD40 (UniProt P25942). The test is described as follows: cell-based or functional assay.

Consider LOB7/6 (antibody), for which the EC50 from CD40 activation experiments (bioluminescent CD40 effector CHO cell assay) is -1.47 log(µM).
